Test results reported in US20230272055A1 (Incyte, published 2023).
Substitutions are numbered along the chain they refer to. In names and notes the source's numbering stands.

B1: anti-mutCALR antibody clone 55 (antibody, human IgG1, lambda, N297A)
heavy: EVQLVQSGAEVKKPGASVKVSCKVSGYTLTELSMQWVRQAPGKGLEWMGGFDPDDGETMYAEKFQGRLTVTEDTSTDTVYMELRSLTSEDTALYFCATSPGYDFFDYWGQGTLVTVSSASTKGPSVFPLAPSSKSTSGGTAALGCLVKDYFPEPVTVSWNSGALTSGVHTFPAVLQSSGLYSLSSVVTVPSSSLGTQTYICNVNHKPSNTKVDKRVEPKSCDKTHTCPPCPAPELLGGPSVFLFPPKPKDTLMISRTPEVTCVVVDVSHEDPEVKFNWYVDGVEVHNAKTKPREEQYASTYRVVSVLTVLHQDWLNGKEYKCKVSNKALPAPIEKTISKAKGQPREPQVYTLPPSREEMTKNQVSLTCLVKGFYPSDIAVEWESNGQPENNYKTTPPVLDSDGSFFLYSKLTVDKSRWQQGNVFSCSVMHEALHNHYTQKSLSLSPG
light: QSALTQPASVSGSPGQSITISCTGTSSDVGGYNYVSWYQQHPGKAPKLMIYEVSNRPSGVSNRFSGSNSGNTATLTINRVEAGDEADYYCQVWDSSNDLLIFGGGTKLTVLGQPKAAPSVTLFPPSSEELQANKATLVCLISDFYPGAVTVAWKADSSPVKAGVETTTPSKQSNNKYAASSYLSLTPEQWKSHRSYSCQVTHEGSTVEKTVAPTECS
notes: human IgG1 N297A variant of clone 6; also called antibody 55
B2: anti-mutCALR antibody clone 63 (antibody, human IgG1, lambda, N297A, V domains shown)
VH: EVQLVQSGAEVKKPGASVKVSCKVSGYTLTELSMQWVRQAPGKGLEWMGGFDPDEGETMYAEKFQGRLTVTEDTSTDTVYMELSSLRSEDTAVYFCATSPGYDFFDYWGQGTLVTVSS
VL: QSALTQPASVSGSPGQSITISCTGTSSDVGGYNYVSWYQQHPGKAPKLMIYEVSNRPSGVSNRFSGSNSGNTATLTINRVEAGDEADYYCQVWDSSNDLLIFGGGTKLTVLG
notes: human IgG1 N297A variant of clone 6
B3: anti-mutCALR antibody clone 57 (antibody, human IgG1, lambda, N297A, V domains shown)
VH: B2 VH with E55S, S84R, R87T, V93L
VL: B2 VL
notes: as for B2
B4: anti-mutCALR antibody clone 62 (antibody, human IgG1, lambda, N297A, V domains shown)
VH: B2 VH with E55S
VL: B2 VL
notes: as for B2
B5: anti-mutCALR antibody clone 60 (antibody, human IgG1, lambda, N297A, V domains shown)
VH: B2 VH with E55D
VL: B2 VL
notes: as for B2
B6: anti-mutCALR antibody clone 59 (antibody, human IgG1, lambda, N297A, V domains shown)
VH: B2 VH with E55D, G56A, S84R, R87T, V93L
VL: B2 VL
notes: as for B2
B7: anti-mutCALR antibody clone 58 (antibody, human IgG1, lambda, N297A, V domains shown)
VH: B2 VH with S84R, R87T, V93L
VL: B2 VL
notes: as for B2
B8: anti-mutCALR antibody clone 61 (antibody, human IgG1, lambda, N297A, V domains shown)
VH: B2 VH with E55A
VL: B2 VL
notes: as for B2
B9: anti-mutCALR antibody clone 56 (antibody, human IgG1, lambda, N297A, V domains shown)
VH: B2 VH with E55A, S84R, R87T, V93L
VL: B2 VL
notes: as for B2
B10: anti-mutCALR antibody clone 64 (antibody, human IgG1, lambda, N297A, V domains shown)
VH: B2 VH with E55D, G56A
VL: B2 VL
notes: as for B2
B11: anti-mutCALR antibody clone 139 (antibody, human IgG1, lambda, N297A, V domains shown)
VH: B2 VH with E55D
VL: SYVLTQPPSVSVAPGKTARITCGGDNIGSKSVHWYQQKPGQAPVLVVYDDSDRPSGIPERFSGSNSGNTATLTISRVEAGDEADYYCQVWDSSNDLLIFGGGTKLTVLG
notes: human IgG1 N297A variant of clone 15
B12: anti-mutCALR antibody clone 70 (antibody, human IgG1, lambda, N297A, V domains shown)
VH: B2 VH with E55D
VL: SYVLTQPPSVSVAPGKTARITCTGTSSDVGGYNYVSWYQQKPGQAPVLVVYEVSNRPSGIPERFSGSNSGNTATLTISRVEAGDEADYYCQVWDSSNDLLIFGGGTKLTVLG
notes: as for B2
B13: anti-mutCALR antibody clone 187 (antibody, human IgG1, lambda, N297A, V domains shown)
VH: B2 VH with E55S
VL: B11 VL with K16Q, D25S, N26D, S29D, K30E, S31I, N94S, L96H
notes: human IgG1 N297A variant of clone 17
B14: anti-mutCALR antibody clone 140 (antibody, human IgG1, lambda, N297A, V domains shown)
VH: B2 VH with E55A
VL: B11 VL
notes: as for B11
B15: anti-mutCALR antibody clone 142 (antibody, human IgG1, lambda, N297A, V domains shown)
VH: B2 VH
VL: B11 VL
notes: as for B11
B16: anti-mutCALR antibody clone 66 (antibody, human IgG1, lambda, N297A, V domains shown)
VH: B2 VH with E55A, S84R, R87T, V93L
VL: B12 VL
notes: as for B2
B17: anti-mutCALR antibody clone 182 (antibody, human IgG1, lambda, N297A, V domains shown)
VH: B2 VH with E55S, S84R, R87T, V93L
VL: B11 VL with K16Q, D25S, N26D, S29D, K30E, S31I, N94S, L96H
notes: as for B13
B18: anti-mutCALR antibody clone 181 (antibody, human IgG1, lambda, N297A, V domains shown)
VH: B2 VH with E55A, S84R, R87T, V93L
VL: B11 VL with K16Q, D25S, N26D, S29D, K30E, S31I, N94S, L96H
notes: as for B13
B19: anti-mutCALR antibody clone 185 (antibody, human IgG1, lambda, N297A, V domains shown)
VH: B2 VH with E55D
VL: B11 VL with K16Q, D25S, N26D, S29D, K30E, S31I, N94S, L96H
notes: as for B13
B20: anti-mutCALR antibody clone 171 (antibody, human IgG1, lambda, N297A, V domains shown)
VH: B2 VH with E55A, S84R, R87T, V93L
VL: B11 VL with K16Q, D25S, N26D, S29D, K30E, S31I, V77A, E78Q, N94S, L96H
notes: as for B13
B21: anti-mutCALR antibody clone 183 (antibody, human IgG1, lambda, N297A, V domains shown)
VH: B2 VH with S84R, R87T, V93L
VL: B11 VL with K16Q, D25S, N26D, S29D, K30E, S31I, N94S, L96H
B22: anti-mutCALR antibody clone 172 (antibody, human IgG1, lambda, N297A, V domains shown)
VH: B2 VH with E55S, S84R, R87T, V93L
VL: B11 VL with K16Q, D25S, N26D, S29D, K30E, S31I, V77A, E78Q, N94S, L96H
notes: as for B13
B23: anti-mutCALR antibody clone 189 (antibody, human IgG1, lambda, N297A, V domains shown)
VH: B2 VH with E55D, G56A
VL: B11 VL with K16Q, D25S, N26D, S29D, K30E, S31I, N94S, L96H
B24: anti-mutCALR antibody clone 173 (antibody, human IgG1, lambda, N297A, V domains shown)
VH: B2 VH with S84R, R87T, V93L
VL: B11 VL with K16Q, D25S, N26D, S29D, K30E, S31I, V77A, E78Q, N94S, L96H
B25: anti-mutCALR antibody clone 184 (antibody, human IgG1, lambda, N297A, V domains shown)
VH: B2 VH with E55D, G56A, S84R, R87T, V93L
VL: B11 VL with K16Q, D25S, N26D, S29D, K30E, S31I, N94S, L96H
notes: as for B13
B26: anti-mutCALR antibody clone 174 (antibody, human IgG1, lambda, N297A, V domains shown)
VH: B2 VH with E55D, G56A, S84R, R87T, V93L
VL: B11 VL with K16Q, D25S, N26D, S29D, K30E, S31I, V77A, E78Q, N94S, L96H
B27: anti-mutCALR antibody clone 67 (antibody, human IgG1, lambda, N297A, V domains shown)
VH: B2 VH with E55S, S84R, R87T, V93L
VL: B12 VL
notes: as for B2
B28: anti-mutCALR antibody clone 188 (antibody, human IgG1, lambda, N297A, V domains shown)
VH: B2 VH
VL: B11 VL with K16Q, D25S, N26D, S29D, K30E, S31I, N94S, L96H
notes: as for B13
B29: anti-mutCALR antibody clone 180 (antibody, human IgG1, lambda, N297A, V domains shown)
VH: B2 VH with E55D, S84R, R87T, V93L
VL: B11 VL with K16Q, D25S, N26D, S29D, K30E, S31I, N94S, L96H
notes: as for B13
B30: anti-mutCALR antibody clone 186 (antibody, human IgG1, lambda, N297A, V domains shown)
VH: B2 VH with E55A
VL: B11 VL with K16Q, D25S, N26D, S29D, K30E, S31I, N94S, L96H
notes: as for B13
B31: anti-mutCALR antibody clone 170 (antibody, human IgG1, lambda, N297A)
heavy: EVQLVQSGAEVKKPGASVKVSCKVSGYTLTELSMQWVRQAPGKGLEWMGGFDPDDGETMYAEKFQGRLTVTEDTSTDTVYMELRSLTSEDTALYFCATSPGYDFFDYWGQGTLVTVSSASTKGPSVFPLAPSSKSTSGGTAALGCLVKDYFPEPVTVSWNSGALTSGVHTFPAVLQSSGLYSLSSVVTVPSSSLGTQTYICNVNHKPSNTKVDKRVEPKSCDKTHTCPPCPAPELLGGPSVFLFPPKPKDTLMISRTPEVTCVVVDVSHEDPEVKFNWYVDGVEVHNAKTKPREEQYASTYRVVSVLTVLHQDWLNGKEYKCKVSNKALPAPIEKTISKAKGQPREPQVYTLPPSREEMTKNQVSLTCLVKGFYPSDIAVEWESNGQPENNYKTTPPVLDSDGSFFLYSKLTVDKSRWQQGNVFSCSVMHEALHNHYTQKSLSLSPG
light: SYVLTQPPSVSVAPGQTARITCGGSDIGDEIVHWYQQKPGQAPVLVVYDDSDRPSGIPERFSGSNSGNTATLTISRAQAGDEADYYCQVWDSSSDHLIFGGGTKLTVLGQPKAAPSVTLFPPSSEELQANKATLVCLISDFYPGAVTVAWKADSSPVKAGVETTTPSKQSNNKYAASSYLSLTPEQWKSHRSYSCQVTHEGSTVEKTVAPTECS
notes: as for B13
B32: anti-mutCALR antibody clone 141 (antibody, human IgG1, lambda, N297A, V domains shown)
VH: B2 VH with E55S
VL: B11 VL
notes: as for B11
B33: anti-mutCALR antibody clone 143 (antibody, human IgG1, lambda, N297A, V domains shown)
VH: B2 VH with E55D, G56A
VL: B11 VL
notes: as for B11

Molecular target: T1, Recombinant MBP-mutCALR Type 1 fusion protein (human)
T1 construct: custom made at Cepter; also called recombinant mutCALR protein
Assay: SPR, IgG captured, 1:1 fit, Exp. 2
Procedure: Experiment 2: Recombinant MBP-mutCALR Type 1 fusion protein was custom made at Cepter (cepterbiopartners.com). Data for the interaction of antibodies with recombinant mutCALR protein were collected at 25° C. on a Biacore 8K instrument (Cytiva, Marlborough, Mass.), and all reagents were obtained from Cytiva unless otherwise specified. The experiments were conducted using Tris-buffered saline (pH 7.2), 0.005% Surfactant P20, 1 mM CaCl₂) as running buffer. To prepare the capture surfaces, anti-human IgG (Fc) antibodies (Product #29234600) was amine-coupled onto a CM4 chip (Product #BR100534) under standard conditions using an Amine Coupling Kit (Product #BR100050). […] The kinetics parameters were obtained by applying 1:1 binding model to fit the data from multiple-cycle injection experiments using Biacore Insight Evaluation software.

Binder | Kd [nM] | koff [s⁻¹] | kon [M⁻¹ s⁻¹]
B1 | 0.171 | 0.000911 | 5.32e+06
B2 | 0.244 | 0.000691 | 2.83e+06
B3 | 0.637 | 0.0039 | 6.12e+06
B4 | 1.76 | 0.00621 | 3.52e+06
B5 | 1.15 | 0.00166 | 1.44e+06
B6 | 1.44 | 0.00136 | 945000
B7 | 0.343 | 0.00232 | 6.76e+06
B8 | 0.893 | 0.00369 | 4.13e+06
B9 | 3.08 | 0.00212 | 690000
B10 | 0.638 | 0.00248 | 3.89e+06
B11 | 0.966 | 0.000953 | 987000
B12 | 0.966 | 0.000953 | 987000
B13 | 1.59 | 0.0163 | 1e+07
B14 | 7.09 | 0.00541 | 763000
B15 | 2.27 | 0.00269 | 1.19e+06
B16 | 2.36 | 0.00836 | 3.54e+06
B17 | 1.23 | 0.00692 | 5.62e+06

Binder | Kd [nM] | koff [s⁻¹] | kon [M⁻¹ s⁻¹]
B18 | 1.58 | 0.0209 | 1e+07
B19 | 0.171 | 0.000911 | 5.32e+06
B20 | 1.65 | 0.0109 | 6.57e+06
B21 | 1 | 0.00124 | 1.23e+06
B22 | 2.24 | 0.0025 | 1.12e+06
B23 | 0.422 | 0.0153 | > 1e+07
B24 | 0.653 | 0.00349 | 5.35e+06
B25 | 1.57 | 0.000673 | 428000
B26 | 0.526 | 0.0041 | 7.8e+06
B27 | 3.34 | 0.0102 | 3.05e+06
B28 | 1.65 | 0.00121 | 732000
B29 | 0.198 | 0.127 | > 1e+07
B30 | 2.86 | 0.00243 | 848000
B31 | 0.419 | 0.00179 | 4.27e+06
B32 | 4.47 | 0.0187 | 4.18e+06
B33 | 1.31 | 0.00753 | 5.74e+06
